Assay results published in patent publication US20140161821A1, “TREATMENT WITH ANTI-PCSK9 ANTIBODIES” (PFIZER INC., priority 2011, published 2014).

Experiments:
PCSK9 [1] = target: T1, PCSK9 (Homo sapiens, UniProt Q8NBP7); assay: Example 2 clinical study, single escalating IV doses: fasting lipids; type: in vivo
T1 construct: PCSK9 antagonist antibody that antagonizes circulating PCSK9; endogenous in cells; host or cells: human subjects in clinical trials (in vivo, circulating PCSK9)
Experimental: The study entailed a randomized, placebo-controlled, ascending, single dose study of L1L3. The subjects, investigator, and site personnel (except site personnel responsible for drug preparation) were blinded to treatment assignments, as was the CRO designee; while the Sponsor clinical research team was unblinded. The study was conducted in 6 planned cohorts of 8 subjects per cohort in an effort to seek a maximum tolerated dose or MTD (total of approximately 48 subjects). […] Doses were administered following an overnight fast as an intravenous infusion over 60 minutes. […] Infusions will be administered as a single infusion over 60 minutes.
Change in serum lipids (total cholesterol, LDL, HDL, Triglycerides, Non-HDL-C and Apoprotein B) were assessed.
Collection of fasting lipid profile was performed after at least a 10-hour fast (total cholesterol, LDL, HDL, Non-HDL Cholesterol, Apo B and triglycerides).

PCSK9 [2] = target: T1, PCSK9; assay: Example 3 clinical study, single IV dose on stable atorvastatin: fasting LDL-C; type: in vivo
Text: Subjects who have hypertension and are controlled on stable dosages of anti-hypertensive medications could be included. The study included both genders, with a minimum age limit of 18 and a maximum age limit of 80.

T1 sequence (Q8NBP7 153-692): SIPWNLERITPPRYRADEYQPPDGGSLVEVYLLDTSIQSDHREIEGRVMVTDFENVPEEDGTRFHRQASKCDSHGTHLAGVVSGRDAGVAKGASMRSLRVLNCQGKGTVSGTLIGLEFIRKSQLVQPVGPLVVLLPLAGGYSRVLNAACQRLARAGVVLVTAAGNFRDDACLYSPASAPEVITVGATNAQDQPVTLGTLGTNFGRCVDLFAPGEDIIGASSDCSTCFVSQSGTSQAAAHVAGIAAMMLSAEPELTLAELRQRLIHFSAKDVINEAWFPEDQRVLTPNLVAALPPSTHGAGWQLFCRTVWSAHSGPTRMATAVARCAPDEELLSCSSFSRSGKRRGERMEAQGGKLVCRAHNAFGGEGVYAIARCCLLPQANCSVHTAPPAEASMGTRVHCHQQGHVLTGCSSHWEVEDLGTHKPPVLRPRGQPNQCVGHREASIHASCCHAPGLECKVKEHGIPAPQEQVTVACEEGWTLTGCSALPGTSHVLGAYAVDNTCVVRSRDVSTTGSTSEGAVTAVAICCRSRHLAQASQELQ
T1 sequence (Q8NBP7 31-152 partner limits assumed): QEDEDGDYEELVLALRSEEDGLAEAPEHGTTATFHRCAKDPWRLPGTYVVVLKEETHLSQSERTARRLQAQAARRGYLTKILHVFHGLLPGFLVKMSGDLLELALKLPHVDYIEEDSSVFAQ

B1: L1L3: humanized (<5% murine residues) monoclonal PCSK9 antagonist antibody that binds to secreted PCSK9; VH SEQ ID NO: 11, VL SEQ ID NO: 12 (antibody, V domains shown)
VH: QVQLVQSGAEVKKPGASVKVSCKASGYTFTSYYMHWVRQAPGQGLEWMGEISPFGGRTNYNEKFKSRVTMTRDTSTSTVYMELSSLRSEDTAVYYCARERPLYASDLWGQGTTVTVSS
VL: DIQMTQSPSSLSASVGDRVTITCRASQGISSALAWYQQKPGKAPKLLIYSASYRYTGVPSRFSGSGSGTDFTFTISSLQPEDIATYYCQQRYSLWRTFGQGTKLEIK
modifications: heavy chain variable region; light chain variable region
PCSK9 [1]; single IV 3 mg/kg, visit day 22
  mean percentage change from baseline of fasting LDL-C: −65.09%
PCSK9 [1]; single IV 3 mg/kg, visit day 29
  mean percentage change from baseline of fasting LDL-C: −64.77%
PCSK9 [1]; single IV 3 mg/kg, visit day 43
  mean percentage change from baseline of fasting LDL-C: −27.56%
PCSK9 [1]; single IV 6 mg/kg, visit day 1
  mean percentage change from baseline of fasting LDL-C: 0.000%
PCSK9 [1]; single IV 6 mg/kg, visit day 2
  mean percentage change from baseline of fasting LDL-C: −1.44%
PCSK9 [1]; single IV 6 mg/kg, visit day 3
  mean percentage change from baseline of fasting LDL-C: −9.23%
PCSK9 [1]; single IV 6 mg/kg, visit day 4
  mean percentage change from baseline of fasting LDL-C: −18.80%
PCSK9 [1]; single IV 6 mg/kg, visit day 8
  mean percentage change from baseline of fasting LDL-C: −43.77%
PCSK9 [1]; single IV 6 mg/kg, visit day 15
  mean percentage change from baseline of fasting LDL-C: −61.52%
PCSK9 [1]; single IV 6 mg/kg, visit day 22
  mean percentage change from baseline of fasting LDL-C: −68.92%
PCSK9 [1]; single IV 6 mg/kg, visit day 29
  mean percentage change from baseline of fasting LDL-C: −64.19%
PCSK9 [1]; single IV 6 mg/kg, visit day 36
  mean percentage change from baseline of fasting LDL-C: −67.70%
PCSK9 [1]; single IV 6 mg/kg, visit day 43
  mean percentage change from baseline of fasting LDL-C: −64.18%
PCSK9 [1]; single IV 6 mg/kg, visit day 50
  mean percentage change from baseline of fasting LDL-C: −49.17%
PCSK9 [1]; single IV 6 mg/kg, visit day 57
  mean percentage change from baseline of fasting LDL-C: −36.12%
PCSK9 [1]; single IV 12 mg/kg, visit day 1
  mean percentage change from baseline of fasting LDL-C: 0.000%
PCSK9 [1]; single IV 12 mg/kg, visit day 2
  mean percentage change from baseline of fasting LDL-C: −8.26%
PCSK9 [1]; single IV 12 mg/kg, visit day 3
  mean percentage change from baseline of fasting LDL-C: −14.05%
PCSK9 [1]; single IV 12 mg/kg, visit day 4
  mean percentage change from baseline of fasting LDL-C: −23.23%
PCSK9 [1]; single IV 12 mg/kg, visit day 8
  mean percentage change from baseline of fasting LDL-C: −37.96%
PCSK9 [1]; single IV 12 mg/kg, visit day 15
  mean percentage change from baseline of fasting LDL-C: −66.25%
PCSK9 [1]; single IV 12 mg/kg, visit day 22
  mean percentage change from baseline of fasting LDL-C: −59.79%
PCSK9 [1]; single IV 12 mg/kg, visit day 29
  mean percentage change from baseline of fasting LDL-C: −74.67%
PCSK9 [1]; single IV 12 mg/kg, visit day 36
  mean percentage change from baseline of fasting LDL-C: −65.23%
PCSK9 [1]; single IV 12 mg/kg, visit day 43
  mean percentage change from baseline of fasting LDL-C: −69.31%
PCSK9 [1]; single IV 12 mg/kg, visit day 50
  mean percentage change from baseline of fasting LDL-C: −56.08%
PCSK9 [1]; single IV 12 mg/kg, visit day 57
  mean percentage change from baseline of fasting LDL-C: −63.10%
PCSK9 [1]; single IV 18 mg/kg, visit day 1
  mean percentage change from baseline of fasting LDL-C: 0.000%
PCSK9 [1]; single IV 18 mg/kg, visit day 2
  mean percentage change from baseline of fasting LDL-C: −11.52%
PCSK9 [1]; single IV 18 mg/kg, visit day 3
  mean percentage change from baseline of fasting LDL-C: −22.43%
PCSK9 [1]; single IV 18 mg/kg, visit day 4
  mean percentage change from baseline of fasting LDL-C: −34.36%
PCSK9 [1]; single IV 18 mg/kg, visit day 8
  mean percentage change from baseline of fasting LDL-C: −43.70%
PCSK9 [1]; single IV 18 mg/kg, visit day 15
  mean percentage change from baseline of fasting LDL-C: −82.89%
PCSK9 [1]; single IV 18 mg/kg, visit day 22
  mean percentage change from baseline of fasting LDL-C: −72.97%
PCSK9 [1]; single IV 18 mg/kg, visit day 29
  mean percentage change from baseline of fasting LDL-C: −67.40%
PCSK9 [1]; single IV 18 mg/kg, visit day 36
  mean percentage change from baseline of fasting LDL-C: −61.47%
PCSK9 [1]; single IV 18 mg/kg, visit day 43
  mean percentage change from baseline of fasting LDL-C: −80.21%
PCSK9 [1]; single IV 0.3-18 mg/kg, baseline 173 mg/dL
  Fasting triglyceride (TGs) levels: remained unchanged
PCSK9 [1]; single IV 0.3-18 mg/kg, baseline about 49 mg/dL
  High density lipoprotein cholesterol (HDL-C) levels: did not change significantly
PCSK9 [2]; 0.5 mg/kg L1L3, atorvastatin 40 mg daily, Day 0
  mean percent change from baseline of fasting LDL-C: 0.0%
PCSK9 [2]; 0.5 mg/kg L1L3, atorvastatin 40 mg daily, Day 1
  mean percent change from baseline of fasting LDL-C: −28.8%
PCSK9 [2]; 0.5 mg/kg L1L3, atorvastatin 40 mg daily, Day 2
  mean percent change from baseline of fasting LDL-C: −48.5%
PCSK9 [2]; 0.5 mg/kg L1L3, atorvastatin 40 mg daily, Day 3
  mean percent change from baseline of fasting LDL-C: −66.7%
PCSK9 [2]; 0.5 mg/kg L1L3, atorvastatin 40 mg daily, Day 11
  mean percent change from baseline of fasting LDL-C: −34.4%
PCSK9 [2]; 0.5 mg/kg L1L3, atorvastatin 40 mg daily, Day 18
  mean percent change from baseline of fasting LDL-C: 9.0%
PCSK9 [2]; 0.5 mg/kg L1L3, atorvastatin 40 mg daily, Day 25
  mean percent change from baseline of fasting LDL-C: 23.3%
PCSK9 [2]; 0.5 mg/kg L1L3, atorvastatin 40 mg daily, Day 32
  mean percent change from baseline of fasting LDL-C: 14.8%
PCSK9 [2]; 0.5 mg/kg L1L3, atorvastatin 40 mg daily, Day 39
  mean percent change from baseline of fasting LDL-C: 21.2%
PCSK9 [2]; 0.5 mg/kg L1L3, atorvastatin 40 mg daily, Day 46
  mean percent change from baseline of fasting LDL-C: 17.0%
PCSK9 [2]; 0.5 mg/kg L1L3, atorvastatin 40 mg daily, Day 53
  mean percent change from baseline of fasting LDL-C: 27.9%
PCSK9 [2]; 0.5 mg/kg L1L3, atorvastatin 40 mg daily, Day 60
  mean percent change from baseline of fasting LDL-C: 30.1%
PCSK9 [2]; 0.5 mg/kg L1L3, atorvastatin 40 mg, day following L1L3 administration
  Day on which the maximum LDL-C lowering effect was observed: 3 days
PCSK9 [2]; 4 mg/kg L1L3, atorvastatin 40 mg daily, Day 0
  mean percent change from baseline of fasting LDL-C: 0.0%
PCSK9 [2]; 4 mg/kg L1L3, atorvastatin 40 mg daily, Day 1
  mean percent change from baseline of fasting LDL-C: −20.9%
PCSK9 [2]; 4 mg/kg L1L3, atorvastatin 40 mg daily, Day 2
  mean percent change from baseline of fasting LDL-C: −38.4%
PCSK9 [2]; 4 mg/kg L1L3, atorvastatin 40 mg daily, Day 3
  mean percent change from baseline of fasting LDL-C: −43.3%
PCSK9 [2]; 4 mg/kg L1L3, atorvastatin 40 mg daily, Day 11
  mean percent change from baseline of fasting LDL-C: −64.6%
PCSK9 [2]; 4 mg/kg L1L3, atorvastatin 40 mg daily, Day 18
  mean percent change from baseline of fasting LDL-C: −73.2%
PCSK9 [2]; 4 mg/kg L1L3, atorvastatin 40 mg daily, Day 25
  mean percent change from baseline of fasting LDL-C: −70.8%
PCSK9 [2]; 4 mg/kg L1L3, atorvastatin 40 mg daily, Day 32
  mean percent change from baseline of fasting LDL-C: −69.9%
PCSK9 [2]; 4 mg/kg L1L3, atorvastatin 40 mg daily, Day 39
  mean percent change from baseline of fasting LDL-C: −45.1%
PCSK9 [2]; 4 mg/kg L1L3, atorvastatin 40 mg daily, Day 46
  mean percent change from baseline of fasting LDL-C: −19.2%
PCSK9 [2]; 4 mg/kg L1L3, atorvastatin 40 mg daily, Day 53
  mean percent change from baseline of fasting LDL-C: −3.6%
PCSK9 [2]; 4 mg/kg L1L3, atorvastatin 40 mg daily, Day 60
  mean percent change from baseline of fasting LDL-C: 7.1%
PCSK9 [2]; 4 mg/kg L1L3, atorvastatin 40 mg, day following L1L3 administration
  Day through which the maximum LDL-C lowering effect was observed: 32 days
